In the DeepSol protein solubility set:

Experiment: soluble on expression in E. coli; label from the status in PepcDB or PDB records

| Sequence | soluble on expression in E. coli |
| --- | --- |
| MRITIVTIFPEMVEVIKKYGVIARAVERGIVEINVENLRDYTTDRHRTVDDYQYGGGYGMVMKPEPFFRFYESYVEKYGKPYVILTSPQGRIFNYKIAEELSKKDDIVIFCGRYEGIDERVMSIVDDEISIGDYILTGGELPAMVITDAVVRLVPGVVERESVERESFHQGLLDHPVYTRPYEYKGMKVPDVLLSGDHEKVELWRRKESIKKTLAKRPDLFLAKELDEMDKLAIIELFRELMEKC | soluble |
| MRIVQATLEHLDLLAPLFVKYREFYGMLSYPESSRKFLEKRLRRKESVIYLALADEEDRLLGFCQLYPSFSSLSLKRVWILNDIYVAEEARRQLVADHLLQHAKQMARETHAVRMRVSTSVDNEVAQKVYESIGFREDQEFKNYTLPISDELS | soluble |
| MRIVVTRPQRSGERTAAKLEALGHAPVLLPLFHPIHHGERATSALSDPAGAIAVTSAEALRALATCEEQLAPYLSKPLFAVGGATAEAAQETGFEQIFTASGDALGLTVLVKQHRAFLTEEEPLLYLAGRPRGSVFEEGLAAAGIPFRTVDCYEMLPSDISENTLETTLLDTTADMVLLYSSEAARAFFHHVSADKYVTALAATKFICISRNVLFLVPEIFRANAKAAEEPSEAAMFELLHHNSGT | not soluble |
| MRKDVKIYLNHILESIELIEEYTKDKTEDDFFTSKFLQDAVIRRIEIIGEAIKNLPMEFREKYNHIPWKEFAEMRDILIRKYFGVDLGLTWEVVKKDIPKLKEEILKIMEELDKNKNNKYNVFAYGELMKKERLLELINRVPKMIEGRVYGYEKFFDETIGYYGARKKEGSYIDGIILLDITDKELGIFDDYEDLDVYYIREKTTAVSEDGRKYDVYIYLRK | soluble |
| MRKGLLAALLLLSACQVLEGSGYRVTEVQFLFPEATERWTYFYGEPRVVELDGRPLRLEAPQGENLWAFPGALWVEGSPVLRATYPSRPPVAEAVRGVSGSLLQVRAQAPLLATWLYDGVGWVRLTGSLREGEERTLVQPANYQTPRLFPLTEEESAVVLREVLARRGGKPVVVFELREPPLPPLRLSPAPDAYRIARLQVQYGLRLEPVMPPAPIFRVLGQGTQAAYQEEAPLALLANDPTSFNRLWALAVGNQLPRPAAPAVDFRNRSVAAFFWGLKPTGGYGLKVVGVTYAGERARVVLSLGAPKPGAITTQALTSPYVVLELQKVRRVVFADTSGKVLAEARD | soluble |
| MRKIILASGSPRRKELLELAGVPFEIIVSEVEETIGAYSSPSDIVMSLALQKASAVAENNSDHIVLGADTIVTYESRILGKPSNKAEAKEMLQLLSGKTHEVYTGVAIIAKDKTVTFYERTEVTFWELTEEEIDAYVASKEPLDKAGSYGIQGKGSIFVQHIQGDYYSVVGLPISRLVRELKQFNIDVTHA | not soluble |
| MRKILITGGAGFIGSALVRYIINETSDAVVVVDKLTYAGNLMSLAPVAQSERFAFEKVDICDRAELARVFTEHQPDCVMHLAAESHVDRSIDGPAAFIETNIVGTYTLLEAARAYWNALTEDKKSAFRFHHISTDEVYGDLHSTDDFFTETTPYAPSSPYSASKASSDHLVRAWLRTYGLPTLITNCSNNYGPYHFPEKLIPLMILNALAGKSLPVYGNGQQIRDWLYVEDHARALYCVATTGKVGETYNIGGHNERKNLDVVETICELLEELAPNKPHGVAHYRDLITFVADRPGHDLRYAIDASKIARELGCVPQETFESGMRKTVQWYLANESWWKQVQDGSYQGERLGLKG | soluble |
| MRKIVLASVVTSLVGCSMGHRDPVEAKQALNQAINETNSRQIDQLPPSVEADLMPDMDTLTASEPKTLQRFRIQAEDVEAKAFFASLVQGTEYSAAIHPAVTGRITLNLTDVTLDEALGVVRDLYGFEVVKEGKVIQVYPAGLRTVTIPVDYLQFKRTGRSLTSITTGTITNTDTNNSNSSSSSSSSISSNSSSDGSSSNSNSNRSDARGGTEIETTNESDFWPLLEKAVAQLLGGSGGQTVIVNPQAGVLTLRAYPDEIRQVNEFLGISQQRMHRQVILEAKILEVTLSDGYQQGINWSKAFSSNGANYKIGSGSITQDSNGNPITSVLPGLDAIGNLLGGQSNVVISSGSFDAVISFMATQGDLNVLSSPRVTASNNQKAVIKVGTDEYYVTDLSSVVGTGDNAQASPDITLTPFFSGISLDVTPQIDDQGNVLLHVHPAVIEVEQQTKKILYRSEEIELPLARSSIRESDSVIRAKDGDVVVIGGLMKSNTVDQVSKVPFLGDVPALGHLFRNTTKLTQKTELVILLKPTVVGVNTWQKELERSRSLLQEWFPDSQ | not soluble |
| MRKIWGILFLCLTFMLVGCGKEEKPQEAFDTYAKAWNKQKFAEMYDQLSEKAKKDISKKEFTEKYEKIYSGIEVKNLKVEAGEVKEDKKDEGPIPFKVSMDTVGGKINFGHEAKMVKEKDGDKESWKVDWTPDFIFPGMTKDSKVRMQTTEPKRGEIYDRNGKGLATNGKASEIGLIPEKLGDTAPQTKETVAKLLNMSVEEIDQKLAAKWVKPGYLVPIGILPEGATQNTYIDLPGVSTKPVNVRTYPLGEAAAHLTGYIGKVNAEDLKTLQKKGYQADDPVGKAGLEQVLEEKLRGKKGGRVFVEDAQGKEIKNLAKTDAVDGENVTLTIDSAVQEKTYNEMKGEAGSSAAINPKSGETLALVSSPAYDPNIIARGTSKAQREAWNNDPKKPMTNRFTQLSVPGSVFKPITAAIGLETKTIDPKEELKIEGLKWTKDSSWGNYYVTRVKDANPIDFDKAMKYSDNIYFAQEALKIGKDKFMSEAKKFGFDEKLPIEYGFPASKIANDGIKNDIQMADTGYGQGQVLMTPLHLALTYAPIVNDGNIPSPYIIKTDKQPKVWKENVISKGNQDILKTAMTKVINDPDGTGKIAKIDGMTLAGKTGTAELKVSKEAEGKELGWFAAFDLNSPDMVITMMIEDVKGRGGSNIPAEKVKHVFQK | not soluble |
| MRKKLLSIALCATMVAGIFTGCGSSSDTSKKDEGKSADGKITLNVINYHVGTDYAADYYEYLFDAFKKTEEGKNVEFKFEEIPTTDAYNQKIKLLISSGDLPDIVLNGGNNITALAAKSGKVTDITEYLDKDPEWKAMFSDQDLEFNSYEGKVYGIPVSKEISYIYYNKDLFKKAGLEAPDVAYETWDDFYKACDTLKSKNITPVSMDTADLGWLSNLWYSGLIGTAGEEGNKFMNTMYPTDYTSDLVVNATEQLQKMLKNYTTSDAAGGKYDTMATHFFNSEVAMLPNGPWMIPDFKSTDKAPEGFYDKVGIMLLPGSGMESVPTPGDMVGTKDPEKVKAAVAFLKFETTAENQLKALEMAGLQPVSSNIEVPDSLKESDPLMAEVLDIQSKAKYTYGQNQAYWYQNVIDTFSTQLPELAYGNMTAKEFCQKLTDAAKKN | not soluble |
| MRKPKITVIGGGTGIPVILKSLRLEDVEITAVVTVADDGGSSGELRSVMQLTPPGDLRNVLVALSDMPKFYEQIFQYRFAEGDGDFAGHPLGNLIIAGVAEMQGSTYNAMQSLTQFFHTTGKIYPSSEHPLTLHAVFKDGHEVVGESQIADYKGMIDHVYVTNTYNEETPTASRKVVDAILESDMIVLGPGSLFTSILPNLVIPEIKQALLETRAEVAYVCNIMTQRGETEHFTDADHVEVLKRHLGQDAIDTVLVNIEKVPESYMENNHFDEYLVQVEHDFSGLRKHARRVISSNFLKLEKGGAFHHGDFVVEELMNLVGTHLLEHHHHHH | not soluble |
| MRKTFRQPHALAAMVIAMLMAQLSGCATTSAQTSPTEFGAGLPEAEDHSESAEPQSVEAEVIDERYADVWEKIQHARTIDVHDDAEVRKQRNFFDDKQKFMTQVTQRAEPFLYYIVSQLEARNMPLELALLPIVESGYNPLAQANGPAGLWQMIPATGRNFGLTINSAYDGRKDALASTDAVLDYLQHLYNTLGNDWINAVAGYNSGELVIKAAIDRNKAKGKPTDFWSLNIPARQVQTVPKWLAFIQIIREPSHYNLKVMPIANRPFLERLPAPNGVEISQIANAAGLTKAEFKTYNPGYRQSVIPSKGKYQIALPIENIGHYQENQHKLYAQKRYDSQTYIVKSGDSLGTIAAKFDLSVKELKQANNLTSDRLKIGQELTLLTPMAANDNEPEPVKTKANTDKSSTKANASSTKATSSKSTDKPVAKAKTYKVKSGDSLDKIARKSKVKLADLMKWNQLNAKSIIKPGQELKISELEHHHHHH | soluble |
